Consider one substance from paper PMC9789309.

The Kd is the equilibrium constant for the complex coming apart. In general, koff refers to the first-order rate constant of dissociation. As usually defined, the kon is a measure of how fast the partners come together.

This assay addresses ACE2, membrane-anchored, endogenously expressed on VeroE6 cells (African green monkey (endogenous in VeroE6)). The experiment in a line: single-molecule force spectroscopy (AFM).

Turning to “SARS-CoV-2 Spike receptor binding domain, Wuhan reference strain, monomer (from UniProt P0DTC2 319-541) (domain or fragment)”, the equilibrium dissociation constant (Kd) was 3.2 nM, the off-rate (koff) was found to be 0.00032 s⁻¹ and the on-rate constant (kon) came out at 100000 M⁻¹ s⁻¹.
